Data: the RNAGym collection of RNA variant scans (doi:10.1073/pnas.2313332121)

B1: TPR t1 (parent)
chain: GACCAAUCUGCCCUCAGAGCUCGAGAACAUCUUCGGAUGCAGAGGAGGCAGGCUUCGGUGGCGCGAUAGCGCCAACGUCCUCAACCUCCAAUGCAUCCCACCACAUGAUGAUGCCUGAAGAGCCUUGGUUUUUUG

Variants of: B1
Assay: polymerase ribozyme fitness, log enrichment relative to wild type (log ratio); higher = more active; in vitro selection for triplet polymerase activity
Procedure, shortened: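 Libraries of mutants in each subunit of a heterodimeric triplet polymerase ribozyme were generated by PCR and transcribed. In triplicate, each went through one in vitro selection round: annealing with biotinylated primer, partner subunit and triplets; frozen incubation at −7 °C; gel excision of extended constructs; streptavidin-bead capture; RT-PCR. Fitness, taken from Illumina sequencing of input and output libraries, is the logarithm of a genotype's enrichment over wild-type enrichment, averaged across replicates with inverse-variance weights. The logarithm is base 2, and genotypes needed ≥10 input reads and ≥1 read per output to be kept.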

Variant	polymerase ribozyme fitness (log ratio)
C12U C102U	-1.83
C12U U112A	1.23
C12U C88A A95U C104A	-3.44
C13A C72A	-2.25
C13A C72G	-1.85
C12U G47U G63A U129A	-3.16
C12U C53U C98U U132A	-0.748
C13A A46C C124G	0.675
C12U G36A C62G C73A	-6.24
C12U C20G A83C C98U A121U	-4.1
C12U G52U C53G G61C	-4.41
C12U C49A C62A C70A U78A	-4.12
C12U A75U	0.0801
C12U C73A U96A C104U	-0.414
C12U G45U G57A G60A U116G	-1.77
C12U G17U C73U C88U C104A U109A	-5.21
C12U C62U U92C	-1.06
C12U G45A A95C U109G G117C A118G	-5.62
C13A C15U G51A C94U	-5.17
C12U U112A C115A	1.79
C12U G35A	-3.06
C12U C88U	0.381
C12U C88A	-0.264
C12U G69U G77A	0.767

Variant	polymerase ribozyme fitness (log ratio)
C13A A24U G63C A83U A84C G120U G122A U125A	-6.79
C12U C34U	-3.06
C12U A74G A83C C114A C123G C124G	-1.02
C12U U78C	-0.312
C12U A50U C115U	-3.47
C13A C40U C49G C88A	-3.8
C12U C15U G61C C104U	-1.43
C12U G110C	-2.23
C12U G110A	0.122
C12U C22U U33A C124G	-5.71
C13A A43G G110A C124G G128A	-6.67
C13A A16U C72U G93A	-3.35
C12U G60A G69A	-4.56
C13A A103U U109A U125A U131G	-6.73
C12U G42U C49G U96C	-2.37
C12U C40U G57A G63U C88G A90G	-5.54
C12U G63A	-0.293
C12U G63C	-0.399
C12U G48U C49U G63C C94U G128C	-4.36
C12U G36C A46U C72G U112C G127U	-1.47
C12U C73U A95U A111U	-2.86
C12U U33G C123G	-4.3
C12U C15U U21G C101A	-3.11
C12U C72U A83U C99U	-3.62

Variant	polymerase ribozyme fitness (log ratio)
C12U C15A A37C G52U C72U U116G	-3.77
C12U C53U G71U G77A G120C	1.19
C13A C53U C56U U59G	-2.18
C12U U130A	-0.0283
C12U C40G A50G C64G A103U U112C C115A A118G G127U	-5.71
C12U G77C U81G	-1.21
C12U G61A	0.126
C12U C15U A90G A100C	-1.2
C12U C72G A103G C124A	-5.75
C12U C70U G71U U112A C123G	0.00675
C12U G48A	-0.765
C12U C104G	-4.58
C12U G48A C49G G51A U112A C123A	0.0276
C12U U125A	0.114
C12U G39C A121C	0.709
C12U C22A G39A C85A C102A	-7.04
C12U C15U C72A A121U	1.3
C12U C15A A43C C72U A108U C123G	-6.32
C12U G36U C104U C123G	0.937
C12U G19A G71A C73U C123A	-1.42
C12U G71U A90G A121G	1.71
C13A C28G A46G G110C U125C	-0.574
C13A A83G A121U C123U	0.492
C12U C56A A91U A121C	-0.738

Variant	polymerase ribozyme fitness (log ratio)
C12U C62G C85A C88U	-2.72
C12U G35U C89G C115U	-6.55
C12U A121G	1.82
C12U A121U	2.4
C12U A84C C102A	-1.99
C12U C28U U78A A100C G113A	-3.61
C12U G45A G51U	-3.98
C12U U92C	-1.15
C12U C82U	0.282
C12U C20U A43U C62U U96C U106A U129A	-6.14
C12U C20A C22G U112A	-3.37
C12U U96A	-0.734
C12U U96G	-0.215
C12U C79A U106C	-1.41
C13A C22G G69U G120U	-1.67
C12U C22U	-3.18
C12U C49A	0.257
C12U U21G U38A G61C A103U U112C C115A A118G G127U	-6.24
C12U G52A U78A	-0.0318
C12U C20A G71A U87C	-2.91
C12U G39C U78A	0.181
C12U G47U G120U	0.786
C12U U125A U126C	-0.829
C12U G45C C104A G117A	-3.2

Variant	polymerase ribozyme fitness (log ratio)
C12U G36U A74C C94U A111G U116A	-2.62
C12U U38C G42U G61A U96A G122U	-4.37
C13A A18C C94G C114U	-5.11
C12U C72A C85A C94G A111C A119G U125A U133G	-4.02
C12U G42A A90G G128U	-2.7
C12U G51A C79U C101A	-3.78
C12U G17C	-3.21
C12U U21G C53U A68C C124A	-6.61
C12U G63U A68C C123U	-4.7
C12U C13U C76A C114G	-3.72
C12U C53G C82U G128A	-1.97
C12U C53U C124U	1.56
C12U C62U	0.166
C12U G42A	-1.82
C12U G42U	-0.819
C13A C70G	-3.31
C13A C70U	-2.36
C13A A46C C64U U112C	-1.16
C12U U30C G61U	-3.15
C12U C20A	-1.94
C13A A18U G42U G61U C123G	-0.471
C12U G44C C102U	-2.5
C12U G47A U87C	-0.382
C13A A46U U106C	-2.81

Variant	polymerase ribozyme fitness (log ratio)
C12U G63C G93U	-1.29
C12U C72A	0.312
C12U C34A U106A U112C G120C C124G G128A	-5.07
C12U C28A C40U	-4.66
C12U G23A	-3.55
C13A C40U C72U	-2.43
C12U G47U C85G A111C	-2.51
C12U C22G C72G C104A G113C A118G U129A	-6.33
C12U C20A C56A U116G	-4.71
C12U G117A G127C	-0.67
C12U G42U C49G C73U U96C	-2.57
C13A A50G C62A	-3.49
C12U G44C C79A C89A	-1.32
C12U C22G G45A C94U C99U	-4.27
C12U C40U C86U C94G U130A	-3.47
C13A C53G C70U	-2.31
C13A A66C C123A	-2.16
C12U C28U C53G U129A U130C	-2.76
C12U G47U G69A G110C U112G	-7.15
C13A C73U C79U U132A	-1.98
C13A A43G C70G U116C G117U	-6.51
C13A C22A C31A A46U G71A G120A	-6.56
C12U G42A G128C U131G	-4.81
C12U C70U C94U	0.056

Variant	polymerase ribozyme fitness (log ratio)
C12U C53G G61C	0.0604
C12U G61A C73A C88A	-1.6
C12U U54G U55A G61A G110A A118C U129A	-6.68
C13A C62U	-2.18
C13A C40A C79U	-2.13
C12U G48A C56G C72U	-1.47
C12U G60C C123G	1.46
C12U G51A G120A G127C G128U	-1.84
C12U C53U	0.906
C12U G36C G45A	-0.823
C13A C72U U92C U133A	-3.18
C13A A37G	-2.27
C12U C70U C76G U132C	-0.684
C13A A90G	-1.55
C12U C40G C72G	-1.36
C12U C49G C56U	-0.342
C12U G17U A50G G63U	-3.39
C12U C62U G69A	-3.66
C12U A83C G122U	0.68
C12U A66U U78A U87C	-0.338
C12U G44U U55C	-0.924
C12U G69U	1.01
C12U C80U G110A U130C	-0.275
